The chains are these.
B1: TRIM14 (parent)
chain: REQADSCREQLDIMNDLSNRVWSI
B2: KCNA4 (parent)
chain: YQSGGRLKRPVNVPFDIFTEEVKF
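Further: lentivirally expressed fusions sorted by FACS into six bins by GFP to DsRed ratio, PSI derived from sequencing read proportions per bin multiplied by bin number.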

The first series covers variants of B1. The experiment in a line: protein stability index of a GFP-peptide fusion (GPS, HEK-293T) (PSI 1-6); higher = more stable. The settings on record: c terminus: a fixed tail appended.
For REYADSCREQLDIMNDLSNRVWSI [Q3Y], the protein stability index stood at 2.23.
LEQADSCREQLDIMNDLSNRVWSI [R1L]: the protein stability index was determined as 2.32.
On to PEQADSCREQLDIMNDLSNRVWSI [R1P], for which the protein stability index was determined as 2.48.
With NEQADSCREQLDIMNDLSNRVWSI [R1N], the protein stability index worked out at 2.56.
Turning to KEQADSCREQLDIMNDLSNRVWSI [R1K], the protein stability index came out at 1.72.
With WEQADSCREQLDIMNDLSNRVWSI [R1W], the protein stability index was 2.82.
Same read-out and setting: to GEQADSCREQLDIMNDLSNRVWSI [R1G] belongs 1.86.
Regarding IEQADSCREQLDIMNDLSNRVWSI [R1I], the protein stability index came out at 2.63.
Take QEQADSCREQLDIMNDLSNRVWSI [R1Q]: the protein stability index came to 2.58.
For FEQADSCREQLDIMNDLSNRVWSI [R1F], the protein stability index came to 1.88.
MEQADSCREQLDIMNDLSNRVWSI [R1M]: the protein stability index amounted to 2.19.
On to DEQADSCREQLDIMNDLSNRVWSI [R1D], for which the protein stability index stood at 2.64.
Consider AEQADSCREQLDIMNDLSNRVWSI [R1A], for which the protein stability index was 2.81.
Take SEQADSCREQLDIMNDLSNRVWSI [R1S]: the protein stability index came out at 3.43.
Still for that read-out and setting: then YEQADSCREQLDIMNDLSNRVWSI [R1Y], with 2.11; and TEQADSCREQLDIMNDLSNRVWSI [R1T], with 2.75.
Turning to EEQADSCREQLDIMNDLSNRVWSI [R1E], the protein stability index came out at 3.17.
As for VEQADSCREQLDIMNDLSNRVWSI [R1V], the protein stability index was found to be 2.96.
On to CEQADSCREQLDIMNDLSNRVWSI [R1C], for which the protein stability index was 2.15.
As to HEQADSCREQLDIMNDLSNRVWSI [R1H], the protein stability index is 2.29.
In the case of REQADSCRAQLDIMNDLSNRVWSI [E9A], the protein stability index was 2.03.
On to REQADSCRDQLDIMNDLSNRVWSI [E9D], for which the protein stability index was found to be 2.77.
Take REQADSCRCQLDIMNDLSNRVWSI [E9C]: the protein stability index was 1.84.
Take REQADSCLEQLDIMNDLSNRVWSI [R8L]: the protein stability index was determined as 1.89.
For the variant REQADSCVEQLDIMNDLSNRVWSI [R8V], the protein stability index came to 1.8.
The same measure, in the same setting: then REQADSCNEQLDIMNDLSNRVWSI [R8N], with 2.51; and REQADSCFEQLDIMNDLSNRVWSI [R8F], with 1.6; and REQADSCTEQLDIMNDLSNRVWSI [R8T], with 2.44.
As to REQADSCKEQLDIMNDLSNRVWSI [R8K], the protein stability index is 2.29.
Consider REQADSCDEQLDIMNDLSNRVWSI [R8D], for which the protein stability index was 3.4.
Turning to REQADSCCEQLDIMNDLSNRVWSI [R8C], the protein stability index worked out at 2.3.
The same measure, in the same setting: then REQADSCQEQLDIMNDLSNRVWSI [R8Q], with 2.64.
Consider REQADSCSEQLDIMNDLSNRVWSI [R8S], for which the protein stability index is 2.41.
On to REQADSCPEQLDIMNDLSNRVWSI [R8P], for which the protein stability index is 3.02.
For REQADSCEEQLDIMNDLSNRVWSI [R8E], the protein stability index was 3.19.
For the variant REQADSCMEQLDIMNDLSNRVWSI [R8M], the protein stability index amounted to 2.17.
The same measure, in the same setting: then REQADSCAEQLDIMNDLSNRVWSI [R8A], with 2.47.
Consider REQADSCHEQLDIMNDLSNRVWSI [R8H], for which the protein stability index is 2.61.
Still for that read-out and setting: then REQADSCGEQLDIMNDLSNRVWSI [R8G], with 2.68; and REQADSCIEQLDIMNDLSNRVWSI [R8I], with 1.79.
Regarding REQADSCWEQLDIMNDLSNRVWSI [R8W], the protein stability index stood at 2.53.
With REQADSCYEQLDIMNDLSNRVWSI [R8Y], the protein stability index came out at 1.54.
On to REQIDSCREQLDIMNDLSNRVWSI [A4I], for which the protein stability index worked out at 2.29.
Take REQHDSCREQLDIMNDLSNRVWSI [A4H]: the protein stability index came to 2.
As for REQEDSCREQLDIMNDLSNRVWSI [A4E], the protein stability index turned out to be 2.52.
In the case of REQNDSCREQLDIMNDLSNRVWSI [A4N], the protein stability index turned out to be 2.66.
For the variant REQYDSCREQLDIMNDLSNRVWSI [A4Y], the protein stability index was 2.21.
REQFDSCREQLDIMNDLSNRVWSI [A4F]: the protein stability index was determined as 1.59.
On the same count and under the same terms, to REQTDSCREQLDIMNDLSNRVWSI [A4T] belongs 2.93.
Regarding REQDDSCREQLDIMNDLSNRVWSI [A4D], the protein stability index came to 2.5.
Same read-out and setting: to REQRDSCREQLDIMNDLSNRVWSI [A4R] belongs 2.31.
Take REQWDSCREQLDIMNDLSNRVWSI [A4W]: the protein stability index is 2.34.
In the case of REQGDSCREQLDIMNDLSNRVWSI [A4G], the protein stability index was 2.59.
On the same count and under the same terms, then REQSDSCREQLDIMNDLSNRVWSI [A4S], with 2.27.
With REQCDSCREQLDIMNDLSNRVWSI [A4C], the protein stability index was 1.81.
As to REQVDSCREQLDIMNDLSNRVWSI [A4V], the protein stability index is 2.36.
Take REQQDSCREQLDIMNDLSNRVWSI [A4Q]: the protein stability index is 2.25.
For the variant REQLDSCREQLDIMNDLSNRVWSI [A4L], the protein stability index was found to be 2.57.
REQMDSCREQLDIMNDLSNRVWSI [A4M]: the protein stability index was 3.03.
In the case of REQKDSCREQLDIMNDLSNRVWSI [A4K], the protein stability index is 2.52.
For the variant REQPDSCREQLDIMNDLSNRVWSI [A4P], the protein stability index stood at 1.76.

Variants of B2 are the subject of the next series. The series is described as above. As to conditions: c terminus: a fixed tail appended.
In the case of YQSGGRLKRPVNVPFDIFTGEVKF [E20G], the protein stability index was found to be 1.57.
For the variant YQKGGRLKRPVNVPFDIFTEEVKF [S3K], the protein stability index is 2.27.
On the same count and under the same terms, then YQEGGRLKRPVNVPFDIFTEEVKF [S3E], with 2.57; and YQAGGRLKRPVNVPFDIFTEEVKF [S3A], with 1.7.
Regarding YQSCGRLKRPVNVPFDIFTEEVKF [G4C], the protein stability index turned out to be 1.74.
Take YQSGGRLKRPANVPFDIFTEEVKF [V11A]: the protein stability index was found to be 2.07.
As for YQSGGRLKRPTNVPFDIFTEEVKF [V11T], the protein stability index was determined as 2.15.
Take YQSGGRLKRPVNVPFDIVTEEVKF [F18V]: the protein stability index was 1.67.
The same measure, in the same setting: to YQSGGRLKRPVNVPFDISTEEVKF [F18S] belongs 2.43; to RQSGGRLKRPVNVPFDIFTEEVKF [Y1R], 3.12; to YQSGGRLKRPVNVPFDEFTEEVKF [I17E], 2.15.
The same measure, in the same setting: then YQSGGRLKRPVNVPFDHFTEEVKF [I17H], with 1.98.
On to YQSGARLKRPVNVPFDIFTEEVKF [G5A], for which the protein stability index was determined as 2.32.
Same read-out and setting: to YQSGFRLKRPVNVPFDIFTEEVKF [G5F] belongs 1.6; to YVSGGRLKRPVNVPFDIFTEEVKF [Q2V], 3.32.
On to YQSGGRLKRPVNVPFDIFTEEVKN [F24N], for which the protein stability index stood at 1.93.
Take YQSGGRLKRPVNVPFDIFTEEVKC [F24C]: the protein stability index came to 1.93.
Same read-out and setting: then YQSGGRLKRPVNVPFDIFWEEVKF [T19W], with 1.41.
In the case of YQSGGRLKRPVNVPFDIFHEEVKF [T19H], the protein stability index is 2.83.
For the variant YQSGGRLKRPVNVPTDIFTEEVKF [F15T], the protein stability index was determined as 2.22.
Same read-out and setting: to YQSGGRLKRPVNVPSDIFTEEVKF [F15S] belongs 1.94.
For the variant YQSGGRLKRPVNVPFDIFTEEVTF [K23T], the protein stability index turned out to be 2.36.
In the case of YQSGGRLKRPVNVPFDIFTEEVFF [K23F], the protein stability index is 2.99.
Turning to YQSGGRLKRPVNVPFDIFTEEVDF [K23D], the protein stability index was 1.82.
YQSGGNLKRPVNVPFDIFTEEVKF [R6N]: the protein stability index was 2.16.
In the case of YQSGGDLKRPVNVPFDIFTEEVKF [R6D], the protein stability index came to 2.23.
YQSGGRLKAPVNVPFDIFTEEVKF [R9A]: the protein stability index stood at 2.04.
On to YQSGGRNKRPVNVPFDIFTEEVKF [L7N], for which the protein stability index worked out at 1.84.
Take YQSGGRLKRPVNVPFNIFTEEVKF [D16N]: the protein stability index was 2.03.
On the same count and under the same terms, then YQSGGRLKREVNVPFDIFTEEVKF [P10E], with 1.78; and YQSGGRLKRYVNVPFDIFTEEVKF [P10Y], with 1.93; and YQSGGRLKRTVNVPFDIFTEEVKF [P10T], with 1.79.
Take YQSGGRLKRQVNVPFDIFTEEVKF [P10Q]: the protein stability index is 2.2.

Values taken from the supplement of paper PMC10567573.
